According to publication PMC10076222, “From primordial clocks to circadian oscillators” (Nature, 2023):

Tests used:
[1] = target: T1, KaiCRS-Δcoil (Cereibacter sphaeroides, UniProt A0AAX7FLD9, E415S/E416S); test: X-ray crystal structure; format: binding; conditions: ADP in all active sites
T1 construct: C-terminal coiled-coil truncated at Glu490 (stop codon introduced at position 490)

[2] = target: KaiCRS (Cereibacter sphaeroides, UniProt A0AAX7FLD9, E415S/E416S); test: […] phosphoryl transfer from phosphoserine to ADP, TLC autoradiography; format: biochemical; conditions: 4 mM ADP, ATP synthase reaction in CII domain, Ser413, pH 6.5, 30 °C
Chain of KaiCRS (A0AAX7FLD9 entry or part of it E415S/E416S): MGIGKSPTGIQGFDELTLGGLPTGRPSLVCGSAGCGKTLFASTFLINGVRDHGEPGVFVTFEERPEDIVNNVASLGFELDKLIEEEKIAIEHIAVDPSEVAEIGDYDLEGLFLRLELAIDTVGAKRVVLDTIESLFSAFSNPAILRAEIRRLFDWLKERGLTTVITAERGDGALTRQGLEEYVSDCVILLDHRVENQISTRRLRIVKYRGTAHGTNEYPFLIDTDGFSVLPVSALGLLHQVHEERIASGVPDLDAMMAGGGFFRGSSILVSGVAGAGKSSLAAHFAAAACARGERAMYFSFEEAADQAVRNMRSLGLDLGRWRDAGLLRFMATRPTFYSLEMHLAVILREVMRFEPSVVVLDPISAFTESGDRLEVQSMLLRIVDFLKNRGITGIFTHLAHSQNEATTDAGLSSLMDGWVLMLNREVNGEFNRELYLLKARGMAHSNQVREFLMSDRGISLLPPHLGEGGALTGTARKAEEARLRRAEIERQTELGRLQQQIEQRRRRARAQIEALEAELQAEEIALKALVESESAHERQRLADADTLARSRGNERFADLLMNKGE

[3] = target: KaiC from Rhodobacter sphaeroides KD131, wild type, full length (KaiCRS) (Rhodobacter sphaeroides strain KD131/KCTC 12085)
[4] = target: KaiCRS-S413E/S414E (phosphomimetic mutant) (Rhodobacter sphaeroides strain KD131/KCTC 12085); test: cryo-EM structure; KaiCRS-S413E/S414E:KaiBRS complex, 20 mM MOPS pH 6.50, 50 mM NaCl, 2 mM TCEP, 10 mM MgCl2, 2 mM ATP; ADP in the CI domain
[5] = target: KaiCRS-S413E/S414E (phosphomimetic mutant) (Rhodobacter sphaeroides strain KD131/KCTC 12085); test: fluorescence polarisation; anisotropy competition, 30 °C: KaiBRS-6IAF (0.2-0.4 μM) with KaiCRS (1 μM), unlabelled KaiBRS 0-50 μM, 20 mM MOPS pH 6.5, 50 mM NaCl, 2 mM TCEP, 10 mM MgCl2, 4 mM ADP; 4 h or 12 h; Kd calculated from IC50
[6] = target: KaiC from Rhodobacter sphaeroides KD131, wild type, full length (KaiCRS) (Rhodobacter sphaeroides strain KD131/KCTC 12085); test: as above
[7] = target: KaiC from Rhodobacter sphaeroides KD131, wild type, full length (KaiCRS) (Rhodobacter sphaeroides strain KD131/KCTC 12085); remark: listed apart in the source
[8] = target: KaiC from Rhodobacter sphaeroides KD131, wild type, full length (KaiCRS) (Rhodobacter sphaeroides strain KD131/KCTC 12085); test: AUC; sedimentation velocity, 30,000 r.p.m., 20 °C, 295 nm; 100 μM protein, 1 mM ATP (KaiCRS forms: 20 mM MOPS pH 6.5, 50 mM NaCl; KaiCSE: 20 mM MOPS pH 8.0, 150 mM NaCl)
[9] = target: KaiC from Rhodobacter sphaeroides KD131, wild type, full length (KaiCRS) (Rhodobacter sphaeroides strain KD131/KCTC 12085); test: crystal structure; KaiCRS, sitting drop at 291 K; protein 10 mg/ml in 20 mM MOPS pH 6.5, 50 mM NaCl, 2 mM TCEP, 5 mM MgCl2, 3 mM ATP, 1 mM AMPPCP; 200 mM MgCl2, 100 mM HEPES pH 7.5, 30% PEG 400
[10] = target: KaiC from Rhodobacter sphaeroides KD131, wild type, full length (KaiCRS) (Rhodobacter sphaeroides strain KD131/KCTC 12085); test: SEC; Superdex-200 10/300 GL, unphosphorylated KaiCRS (40 μM) bound with ADP, buffer with 0.1 mM ADP instead of ATP, 4 °C
[11] = target: KaiC from Rhodobacter sphaeroides KD131, wild type, full length (KaiCRS) (Rhodobacter sphaeroides strain KD131/KCTC 12085); test: SEC; Superdex-200 10/300 GL, about 40-80 μM protein, 20 mM MOPS pH 6.5, 50 mM NaCl, 2 mM TCEP, 10 mM MgCl2, 1 mM ATP, 4 °C
[12] = target: KaiCRS-CI domain (KaiCIRS) (Rhodobacter sphaeroides strain KD131/KCTC 12085); test: as above
[13] = target: His6-MBP-TEV-KaiBRS (KaiBRS-tag) (Rhodobacter sphaeroides strain KD131/KCTC 12085); test: pull-down; as a10 but with 4 mM ATP and an ATP-recycling system instead of ADP
Chain of His6-MBP-TEV-KaiBRS (KaiBRS-tag) (Rhodobacter sphaeroides strain KD131/KCTC 12085) (main, as listed by the source): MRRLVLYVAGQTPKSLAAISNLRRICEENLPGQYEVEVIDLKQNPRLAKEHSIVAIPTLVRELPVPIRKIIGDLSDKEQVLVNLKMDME

[14] = target: KaiCRS-S413E/S414E (phosphomimetic mutant) (Rhodobacter sphaeroides strain KD131/KCTC 12085); test: cryo-EM structure; KaiCRS-S413E/S414E alone, 4.3 mg/ml in 20 mM MOPS pH 6.50, 50 mM NaCl, 2 mM TCEP, 10 mM MgCl2, 2 mM ATP; hexamers processed with C6, dodecamer with D6 symmetry
[15] = target: KaiCRS-Δcoil (KaiCRS truncated at residue Glu490) (Rhodobacter sphaeroides strain KD131/KCTC 12085); test: AUC; sedimentation velocity, 30,000 r.p.m., 20 °C, 295 nm; 100 μM protein, 1 mM ATP (KaiCRS forms: 20 mM MOPS pH 6.5, 50 mM NaCl; KaiCSE: 20 mM MOPS pH 8.0, 150 mM NaCl)
[16] = target: KaiCRS-Δcoil (KaiCRS truncated at residue Glu490) (Rhodobacter sphaeroides strain KD131/KCTC 12085); test: crystal structure; KaiCRS-Δcoil, sitting drop at 291 K; 200 mM ammonium acetate, 100 mM sodium citrate pH 5.6, 30% PEG 4,000; space group C2221, three monomers in the asymmetric unit, hexamer by PISA
[17] = target: KaiCRS-Δcoil (KaiCRS truncated at residue Glu490) (Rhodobacter sphaeroides strain KD131/KCTC 12085); test: SEC; Superdex-200 10/300 GL, about 40-80 μM protein, 20 mM MOPS pH 6.5, 50 mM NaCl, 2 mM TCEP, 10 mM MgCl2, 1 mM ATP, 4 °C
[18] = target: the molecule itself; test: AUC; sedimentation velocity, 30,000 r.p.m., 20 °C, 295 nm; 100 μM protein, 1 mM ATP (KaiCRS forms: 20 mM MOPS pH 6.5, 50 mM NaCl; KaiCSE: 20 mM MOPS pH 8.0, 150 mM NaCl)
[19] = target: the molecule itself; test: SEC; Superdex-75 10/300 GL, KaiBRS 0.5 mM, 20 mM MOPS pH 6.5, 50 mM NaCl, 2 mM TCEP, 4 °C

T1 sequence (A0AAX7FLD9 entry or part of it E415S/E416S): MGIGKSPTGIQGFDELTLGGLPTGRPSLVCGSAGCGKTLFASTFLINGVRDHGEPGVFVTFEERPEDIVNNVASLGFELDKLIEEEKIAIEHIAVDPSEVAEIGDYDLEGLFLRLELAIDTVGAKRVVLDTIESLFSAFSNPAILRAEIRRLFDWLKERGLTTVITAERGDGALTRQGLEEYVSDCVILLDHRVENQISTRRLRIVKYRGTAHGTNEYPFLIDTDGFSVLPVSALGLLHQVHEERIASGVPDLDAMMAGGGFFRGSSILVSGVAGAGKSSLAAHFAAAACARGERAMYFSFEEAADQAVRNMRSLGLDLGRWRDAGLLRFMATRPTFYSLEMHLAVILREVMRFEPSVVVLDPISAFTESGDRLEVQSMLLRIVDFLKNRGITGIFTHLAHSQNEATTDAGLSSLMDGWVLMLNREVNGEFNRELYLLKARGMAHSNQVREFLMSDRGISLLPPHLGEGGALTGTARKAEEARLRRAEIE

Molecule: Nc1ncnc2c1ncn2[C@@H]1O[C@H](COP(=O)(O)OP(=O)(O)O)[C@@H](O)[C@H]1O [ADP]
- X-ray crystal structure [1]: contained three monomers in the asymmetric unit, with ADP present in all active sites
- 32P phosphoryl transfer from phosphoserine to ADP, TLC autoradiography [2]: KaiCRS undergoes dephosphorylation through an ATP synthase mechanism

Molecule: KaiB from Rhodobacter sphaeroides KD131 (KaiBRS), tag cleaved (natural protein)
- fold increase in ATPase activity of KaiCRS with KaiBRS at 30 °C [3]: 7.5 fold
- stoichiometry N (KaiBRS per KaiCRS dodecamer) [4]: 12
- Kd [5]: 790 nM
- Kd [6]: 420 nM
- ATPase activity of KaiCRS (3.5 μM) with KaiBRS (3.5 μM) in 4 mM ATP, ADP by HPLC, 20-35 °C (with KaiBRS 176, 1052, 1557, 2584; alone 108, 163, 208, 300 day^-1 KaiC^-1) [7]: 2580 ATP/day/KaiC

Molecule: KaiC from Rhodobacter sphaeroides KD131, wild type, full length (KaiCRS) (enzyme)
- stoichiometry N [8]: 12
- stoichiometry N [9]: 12
- stoichiometry N [10]: 12
- stoichiometry N [11]: 12

Molecule: KaiCRS-CI domain (KaiCIRS) (domain or fragment)
- stoichiometry N [12]: 6

Molecule: KaiCRS-S413A/S414A (enzyme)
- percent co-eluted [13]: < 30%

Molecule: KaiCRS-S413E/S414E (phosphomimetic mutant) (enzyme)
- stoichiometry N [14]: 12
- stoichiometry N [4]: 12
- percent co-eluted [13]: < 30%

Molecule: KaiCRS-Δcoil (KaiCRS truncated at residue Glu490) (domain or fragment)
- stoichiometry N [15]: 6
- stoichiometry N [16]: 6
- stoichiometry N [17]: 6

Molecule: phosphorylated wild-type KaiCRS (ATP-bound, with ATP-recycling system) (enzyme)
- percent co-eluted [13]: < 30%

B1: KaiC from Synechococcus elongatus PCC 7942 (KaiCSE) (enzyme)
chain: MTSAEMTSPNNNSEHQAIAKMRTMIEGFDDISHGGLPIGRSTLVSGTSGTGKTLFSIQFLYNGIIEFDEPGVFVTFEETPQDIIKNARSFGWDLAKLVDEGKLFILDASPDPEGQEVVGGFDLSALIERINYAIQKYRARRVSIDSVTSVFQQYDASSVVRRELFRLVARLKQIGATTVMTTERIEEYGPIARYGVEEFVSDNVVILRNVLEGERRRRTLEILKLRGTSHMKGEYPFTITDHGINIFPLGAMRLTQRSSNVRVSSGVVRLDEMCGGGFFKDSIILATGATGTGKTLLVSRFVENACANKERAILFAYEESRAQLLRNAYSWGMDFEEMERQNLLKIVCAYPESAGLEDHLQIIKSEINDFKPARIAIDSLSALARGVSNNAFRQFVIGVTGYAKQEEITGLFTNTSDQFMGAHSITDSHISTITDTIILLQYVEIRGEMSRAINVFKMRGSWHDKAIREFMISDKGPDIKDSFRNFERIISGSPTRITVDEKSELSRIVRGVQEKGPES
notes: KaiC of Synechococcus elongatus PCC 7942; source: plasmid a gift from E. K. O'Shea
- stoichiometry N [18]: 6

B2: KaiB from Synechococcus elongatus PCC 7942 (KaiBSE) (natural protein, UniProt Q79PF5 1-102, looked up)
chain: MSPRKTYILKLYVAGNTPNSVRALKTLKNILEVEFQGVYALKVIDVLKNPQLAEEDKILATPTLAKVLPLPVRRIIGDLSDREKVLIGLDLLYGELQDSDDF
notes: KaiB of Synechococcus elongatus PCC 7942
- stoichiometry N [19]: 4
